B1: plastocyanin (Pisum sativum), reduced (natural protein, Pisum sativum (pea), UniProt P16002 70-168, looked up)
chain: VEVLLGASDGGLAFVPSSLEVSAGETIVFKNNAGFPHNVVFDEDEIPAGVDASKISMPEEDLLNAPGETYSVKLDAKGTYKFYCSPHQGAGMVGQVTVN
B2: plastocyanin used with Chlamydomonas reinhardtii PSI (natural protein, UniProt P18068 48-145, looked up)
chain: DATVKLGADSGALEFVPKTLTIKSGETVNFVNNAGFPHNIVFDEDAIPSGVNADAISRDDYLNAPGETYSVKLTAAGEYGYYCEPHQGAGMVGKIIVQ

Experiments:
[1] = target: PsaB (Pisum sativum photosystem I) (Pisum sativum (pea), UniProt P05311 13-734); assay: cryo-EM structure
Sequence of PsaB (Pisum sativum photosystem I) (P05311 13-734): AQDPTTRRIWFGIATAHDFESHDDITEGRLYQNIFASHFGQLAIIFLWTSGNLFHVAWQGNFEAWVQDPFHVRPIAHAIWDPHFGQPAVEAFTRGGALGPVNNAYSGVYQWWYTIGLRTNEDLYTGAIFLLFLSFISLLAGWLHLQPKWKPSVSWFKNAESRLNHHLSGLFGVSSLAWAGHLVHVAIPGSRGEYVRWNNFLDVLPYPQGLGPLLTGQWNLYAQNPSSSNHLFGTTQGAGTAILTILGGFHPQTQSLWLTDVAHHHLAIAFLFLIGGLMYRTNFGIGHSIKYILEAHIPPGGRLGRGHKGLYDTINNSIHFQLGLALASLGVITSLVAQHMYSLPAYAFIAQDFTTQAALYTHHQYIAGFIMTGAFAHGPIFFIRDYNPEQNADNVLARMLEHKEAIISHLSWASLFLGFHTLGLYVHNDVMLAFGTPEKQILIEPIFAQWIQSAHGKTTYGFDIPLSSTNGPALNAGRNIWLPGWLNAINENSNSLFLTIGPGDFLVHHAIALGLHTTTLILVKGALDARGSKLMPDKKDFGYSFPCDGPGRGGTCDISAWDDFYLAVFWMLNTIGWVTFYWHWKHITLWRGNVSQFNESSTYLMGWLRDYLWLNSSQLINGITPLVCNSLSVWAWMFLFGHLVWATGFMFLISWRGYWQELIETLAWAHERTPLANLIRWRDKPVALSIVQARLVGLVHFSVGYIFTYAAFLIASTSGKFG

[2] = target: PsaA (Pisum sativum photosystem I) (Pisum sativum (pea), UniProt P05310 16-758); assay: cryo-EM structure
Sequence of PsaA (Pisum sativum photosystem I) (P05310 16-758): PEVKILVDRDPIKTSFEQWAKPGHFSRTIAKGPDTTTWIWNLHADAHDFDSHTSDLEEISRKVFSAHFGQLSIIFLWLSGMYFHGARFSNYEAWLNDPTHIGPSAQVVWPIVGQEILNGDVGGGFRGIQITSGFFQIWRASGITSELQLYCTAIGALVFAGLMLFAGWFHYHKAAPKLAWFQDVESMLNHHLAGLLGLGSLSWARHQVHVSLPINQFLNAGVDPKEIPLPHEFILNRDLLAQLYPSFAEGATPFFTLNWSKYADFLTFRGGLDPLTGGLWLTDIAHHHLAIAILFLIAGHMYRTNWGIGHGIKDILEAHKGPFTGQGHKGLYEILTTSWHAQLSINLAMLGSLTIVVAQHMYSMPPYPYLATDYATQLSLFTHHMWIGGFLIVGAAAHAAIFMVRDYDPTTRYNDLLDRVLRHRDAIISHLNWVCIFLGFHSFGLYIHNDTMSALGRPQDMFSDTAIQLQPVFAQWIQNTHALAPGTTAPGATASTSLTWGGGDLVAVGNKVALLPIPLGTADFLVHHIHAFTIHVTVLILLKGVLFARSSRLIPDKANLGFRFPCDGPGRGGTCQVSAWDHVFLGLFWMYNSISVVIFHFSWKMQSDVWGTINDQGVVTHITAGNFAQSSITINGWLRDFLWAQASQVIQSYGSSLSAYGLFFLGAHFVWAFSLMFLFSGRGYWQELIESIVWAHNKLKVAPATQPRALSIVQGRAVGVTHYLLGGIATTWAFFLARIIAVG

[3] = target: photosystem I of Chlamydomonas reinhardtii, wild type (Chlamydomonas reinhardtii, UniProt P12154 1-751; P09144 1-735; P12356 63-227); assay: flash-induced absorbance transients at 817 nm

| Binder | binding result [1] | binding result [2] | Kd [3] [µM] |
| --- | --- | --- | --- |
| B1 | binds | binds | – |
| B2 | – | – | 88 |

Reference: publication doi:10.1101/2021.02.03.429574 (bioRxiv, 2021)
